From paper PMC10352136 (2023)

Assays:
[1] = biological target: T1, SNX1-BT*:SNX5-BT* heterodimer (human, UniProt Q13596 1-522; Q9Y5X3 1-404); test: ITC; representative single experiment
[2] = biological target: T2, SNX1-SAH^3A:SNX5-SAH^3A heterodimer (human, UniProt Q13596 1-522; Q9Y5X3 1-404); test: ITC; representative single experiment
[3] = biological target: T1, SNX1-BT*:SNX5-BT* heterodimer; test: ITC
[4] = biological target: T2, SNX1-SAH^3A:SNX5-SAH^3A heterodimer; test: ITC

T2 sequence (Q13596 whole entry, chain 1 of 2): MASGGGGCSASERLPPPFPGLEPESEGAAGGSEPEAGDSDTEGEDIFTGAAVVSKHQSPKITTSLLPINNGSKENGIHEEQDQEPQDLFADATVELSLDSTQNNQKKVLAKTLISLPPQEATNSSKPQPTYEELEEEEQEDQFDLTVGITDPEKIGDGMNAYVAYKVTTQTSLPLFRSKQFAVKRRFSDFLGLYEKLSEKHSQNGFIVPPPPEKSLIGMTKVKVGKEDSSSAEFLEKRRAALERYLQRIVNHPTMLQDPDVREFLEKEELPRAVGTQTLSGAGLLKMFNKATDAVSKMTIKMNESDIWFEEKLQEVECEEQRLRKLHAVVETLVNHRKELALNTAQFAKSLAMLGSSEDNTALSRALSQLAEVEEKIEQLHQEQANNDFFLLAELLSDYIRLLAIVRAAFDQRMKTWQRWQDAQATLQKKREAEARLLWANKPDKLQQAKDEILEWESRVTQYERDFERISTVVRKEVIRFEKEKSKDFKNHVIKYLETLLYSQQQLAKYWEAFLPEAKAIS
T2 sequence (Q9Y5X3 whole entry, chain 2 of 2): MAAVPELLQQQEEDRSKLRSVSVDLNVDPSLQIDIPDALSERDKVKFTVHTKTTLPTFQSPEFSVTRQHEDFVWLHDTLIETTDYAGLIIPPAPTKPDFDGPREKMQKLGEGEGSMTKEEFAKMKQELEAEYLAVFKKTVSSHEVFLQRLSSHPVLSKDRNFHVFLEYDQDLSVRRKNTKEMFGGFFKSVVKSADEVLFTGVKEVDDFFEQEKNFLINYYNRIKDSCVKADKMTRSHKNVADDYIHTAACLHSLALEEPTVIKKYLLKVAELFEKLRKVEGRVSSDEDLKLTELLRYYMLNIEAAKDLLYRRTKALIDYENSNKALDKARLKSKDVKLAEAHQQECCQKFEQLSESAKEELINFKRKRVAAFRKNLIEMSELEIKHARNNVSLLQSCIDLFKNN
T1 sequence (Q13596 whole entry, chain 1 of 2): as the sequence (Q13596 whole entry, chain 1 of 2) above
T1 sequence (Q9Y5X3 whole entry, chain 2 of 2): as the sequence (Q9Y5X3 whole entry, chain 2 of 2) above

Kd [1]: 9.96 µM
Kd [2]: 4.64 µM
Kd [3]: 10.4 µM
Kd [4]: 5.06 µM
B1: CI-MPR_(2347–2375) peptide (bipartite sorting motif of the cation-independent mannose-6-phosphate receptor tail) (peptide)
peptide: SNVSYKYSKVNKEEETDENETEWLMEEIQ
